The record followed here is patent WO2014065403A1 (dated 2014).

Test [1] has as its target T1, partial length CD40 D3 (expressed from the 105th amino acid of CD40) (human, UniProt P25942 105-277).
T1 construct: not shown: VSV-G tag added at the C-terminus
Put plainly: FACS at 1 ug/mL on 293T cells transiently expressing partial length CD40.

Another test has as its target T2, cynomolgus monkey CD40 (cynomolgus monkey, UniProt P25942 21-277 (human entry)).
T2 construct: Stably expressed on CHO cells (pCXN3 vector); also called cynomolgus CD40
T2 chain: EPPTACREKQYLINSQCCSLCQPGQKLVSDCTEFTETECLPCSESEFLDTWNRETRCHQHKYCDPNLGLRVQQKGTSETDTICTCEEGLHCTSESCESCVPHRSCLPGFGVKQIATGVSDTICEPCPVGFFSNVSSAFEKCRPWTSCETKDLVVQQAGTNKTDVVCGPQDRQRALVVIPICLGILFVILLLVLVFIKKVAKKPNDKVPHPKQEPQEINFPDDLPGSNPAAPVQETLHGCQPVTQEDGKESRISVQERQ
Put plainly: FACS on CHO cells expressing cynomolgus monkey CD40.

Test [2] has as its target T3, partial length CD40 from CD40 amino acid residue 146 onward (human, UniProt P25942 146-277).
T3 construct: also called D4 (by its position in the series D1, D1B2, D2, D2B1, D3, D4); not shown: VSV-G tag added at the C-terminus
Put plainly: FACS on 293T cells transiently expressing partial length CD40.

The target of a further test is T4, mouse CD40 (mouse, UniProt P27512 20-289).
T4 construct: Stably expressed on CHO cells (pCXN3 vector)
T4 sequence: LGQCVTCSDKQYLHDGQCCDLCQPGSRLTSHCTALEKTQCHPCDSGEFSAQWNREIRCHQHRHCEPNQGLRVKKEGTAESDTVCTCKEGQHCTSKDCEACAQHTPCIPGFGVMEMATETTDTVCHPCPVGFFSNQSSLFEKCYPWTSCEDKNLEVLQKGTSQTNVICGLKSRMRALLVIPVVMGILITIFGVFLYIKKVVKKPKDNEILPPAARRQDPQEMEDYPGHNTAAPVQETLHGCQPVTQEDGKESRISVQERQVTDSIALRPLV
Kind of test: FACS on CHO cells expressing mouse CD40.

For test [3], the target named is T5, partial length CD40 D2 (expressed from the 62nd amino acid of CD40) (human, UniProt P25942 62-277).
T5 construct: not shown: VSV-G tag added at the C-terminus
Put plainly: FACS at 1 ug/mL on 293T cells transiently expressing partial length CD40.

Test [4] addresses T6, partial length CD40 from CD40 amino acid residue 78 onward (human, UniProt P25942 78-277).
T6 construct: also called D2B1 (by its position in the series D1, D1B2, D2, D2B1, D3, D4); not shown: VSV-G tag added at the C-terminus
Kind of test: FACS on 293T cells transiently expressing partial length CD40.

Changes are numbered by the printed parent chain.

B1: mouse antibody PPAT-071-04 (antibody, V domains shown)
VH: EVQLQQSGPELVKPGASMKISCKASGYSFADYTMNWVKQSHGKKLEWIGLINPYNGGTSYNQKFKDKATLTVDKSSSTAYMELLSLTTEDSAVYYCAEGVNNFADWGQGTTLTVSG
VL: DIVLTQSPTSLAVFLGQRATISCRASKSVSTSGYSYMHWYQQKPGQSPKPLIYLASNLESGVPARFSGSGSGTDFTLNIHPVEEEDAATYYCQHSRELPRTFGGGTKLEIK
notes: Mouse monoclonal IgG from ascites; also called hybridoma NITE BP-01435
As for B1, the binding result in test [1] is “binds”; in the test with cynomolgus monkey CD40 it was “binds”; in test [2] it was “no binding (tested: 1 μg/mL)”; with mouse CD40, “no binding”.

B2: antibody of SEQ ID NOs: 8 and 33 (antibody, V domains shown)
VH: EVQLQQSGPELVKPGASVKMSCKASGYTFTNYVMHWVKQKPGQGLEWIGYVNPYNDDTNYNERFKGKATLTSDKSSSTAYMELSSLTSEDSAVYYCARELTGTYWGQGTLVTVSA
VL: DIVMTQAAPSVPVTPGESVSISCRSSKSLLHSNGNTYLYWFLQRPGQSPQLLISRISNLASGVPDRFSGSGSGTAFTLRISRVEAEDVGVYYCMQHVEYPFTFGSGTKLEIK
notes: clone name not tied; The text speaks of the mature part of these entries
As for B2, the binding result in test [1] is “binds”; in test [2] it was “no binding (tested: 1 μg/mL)”.

B3: antibody of SEQ ID NOs: 16 and 41 (antibody, V domains shown)
VH: EVQLQQSGPELVKPGASVKMSCKASGYTFINYVIHWVKQKPGQGLEWIGYINPYNDDSNYNEKFKGKATLTSDKSSSTAYMELRSLTSEDSAIYYCARDLIGSYWGQGTTLTVSS
VL: B2 VL with P12I, L38F, V90I, V97L, S105A, L109V, I111L
notes: as for B2
Take B3: the binding result in test [1] is “binds”; in test [2], “no binding (tested: 1 μg/mL)”.

B4: antibody of SEQ ID NOs: 12 and 37 (antibody, V domains shown)
VH: EVQLQHSGAELVKPGSSVKLSCTASDFNIKDAYMHWVKQRPEQGLEWIGRIDPANGKTKYDPKFQDKATITADTSSNTAYLQLNSLTSEDTAVYYCPRNYYGSRYGYFDVWGAGTTVTVSS
VL: QIVLTQSPAILSASPGEKVTITCSASSSVDYMFWFQQKPGTSPKLWIYTTSNLASGVPTRFSGSGSGTSYSLTISRMEAEDAATYYCHQRSSYPLTFGAGTKLELK
notes: as for B2
As to B4, the binding result is recorded as “binds” in test [3] and “no binding (tested: 1 μg/mL)” in test [4].

B5: antibody of SEQ ID NOs: 13 and 38 (antibody, V domains shown)
VH: EVQLQQSGAELVKPGASVKLSCTASGFNIKDSYIHWVKQRPEQGLEWIGRIDPANGNTKYDPKFQGKATITSDTSSSTAYLQLTSLTSEDTAVYYCPRNYYGSTYGYFDVWGAGTTVTVSS
VL: B4 VL with L11M, D30S, Y31N, F33H, P39A, T49R, T59A, H88Q, R90G
notes: as for B2
In the case of B5, the binding result in test [3] is “binds”; in test [4], “no binding (tested: 1 μg/mL)”.

B6: antibody of SEQ ID NOs: 15 and 40 (antibody, V domains shown)
VH: QVQLQQSGAELARPGASLKMSCKASGYTFTSYTIHWIKQRPGQGLEWIGYINPSSGYTNDNQKFKDKATLTADKSSTTAYMQLSSLTSEDSAVYYCARLGRPFDYWGQGTTLTVSS
VL: EIVLTQSPALMAASPGEKVTITCSVSSSISSSNLHWYQQKSETSPKPWIYGTSNLASGVPVRFSGSGSGTSYSLTISSMEAEDAATYYCQQWSTYPLTFGSGTKLEIK
notes: as for B2
Consider B6, for which the binding result in test [1] is “binds”; in test [2], “no binding (tested: 1 μg/mL)”.

B7: antibody of SEQ ID NOs: 28 and 53 (antibody, V domains shown)
VH: EVQLQQSGAELVKPGASVKLSCTGSGFNIKDTYMHWVKQRPEQGLEWIGRIDPANGNTKFDPKFQGKATITADTSTNTAYLQVSSLTSEDTAVYYCVRYGYDGYFDYWGQGTTLTVSS
VL: QIVLTQSPAIMSASPGEKVTMTCSVSSSISYMYWYQQKPGTSPKRWIYDTSKLASGVPARFSGSGSGTSYSLTISSMEAEDAATYYCHQRSSYPLTFGAGTKLELK
notes: as for B2
As for B7, the binding result in test [3] is recorded as “binds”; in test [4] it was “no binding (tested: 1 μg/mL)”.
